From patent publication US20220372155A1 (LYVGEN BIOPHARMA, published 2022)
Blank lines part the entries; values can stand above or below the binder they belong to.

Key:
[1] = target: T1, Human CD40 ECD protein (mouse IgG2a Fc tag) (human, UniProt P25942 21-193); test: bridging ELISA, coated B7H4, soluble CD40 ECD-mFc
T1 construct: extracellular domain; also called Human CD40-msFc; human recombinant CD40; not shown: mouse IgG2a Fc tag
Procedure: Anti-B7H4/CD40 bi-specific antibodies were analyzed by ELISA for their simultaneous binding to recombinant human B7H4 and human CD40. Briefly, human B7H4 protein was diluted and coated onto an ELISA plate with a volume of […] by incubation at 4° C. overnight. The next day, the plate was blocked by PBST-BSA buffer, then serially diluted samples of anti-B7H4/CD40 bi-specific antibodies were pipetted into appropriate wells at 50 μL/well, and the plate was incubated for 1 h followed by Washing. Human CD40 ECD protein (mouse IgG2a Fc tag) was added into the plate at 50 μL/well. After 1-hour incubation at room temperature, HRP-conjugated anti-mouse IgG (H+L) antibody was added into the plate at 100 μL/well. The plate was incubated for 1 hour at room temperature followed by washing. TMB substrate solution was added at 100 μL/well and the color development was stopped by adding 100 uL/well Stop Solution (2N H2SO4). Absorbance at 450 nm and 620 nm was read by Tecan F200 Pro plate reader. GraphPad 7.0, “[Agonist] vs. response—Variable slope (four parameters)” was used to plot the binding data and calculate binding EC50 values.

[2] = target: T2, human CD40 expressed on CHO cells (human, UniProt P25942 21-277); test: FACS, CHO cells
T2 construct: whole, on cells; also used for the reporter cells over-expressing human CD40; also called cellular CD40; CHO-CD40 cells
T2 sequence (P25942 21-277): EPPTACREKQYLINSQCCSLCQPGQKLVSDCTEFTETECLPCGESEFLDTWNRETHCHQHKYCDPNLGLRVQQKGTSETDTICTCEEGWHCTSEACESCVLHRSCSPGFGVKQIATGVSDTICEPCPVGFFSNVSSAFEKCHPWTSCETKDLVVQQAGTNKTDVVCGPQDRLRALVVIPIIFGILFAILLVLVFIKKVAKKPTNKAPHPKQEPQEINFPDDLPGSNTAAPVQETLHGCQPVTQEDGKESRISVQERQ

[3] = target: T3, human B7H4 expressed on CHO cells (human, UniProt Q7Z7D3 25-282); test: FACS, CHO cells
T3 construct: whole, on cells; also called VCTN1
T3 sequence (looked up): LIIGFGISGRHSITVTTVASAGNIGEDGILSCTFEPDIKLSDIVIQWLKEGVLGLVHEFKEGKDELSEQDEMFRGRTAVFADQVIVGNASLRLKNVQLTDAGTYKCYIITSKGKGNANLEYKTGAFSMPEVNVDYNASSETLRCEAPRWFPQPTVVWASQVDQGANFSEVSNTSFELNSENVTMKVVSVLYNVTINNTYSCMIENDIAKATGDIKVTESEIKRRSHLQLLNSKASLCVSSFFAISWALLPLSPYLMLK

[4] = target: T4, Ly090 (human CD40 ECD protein with His tag) (human, UniProt P25942 21-193); test: bridging ELISA, coated CD40 ECD-His, soluble PD-L1 ECD-mFc
T4 construct: extracellular domain; also called human CD40 ECD protein (His tag); recombinant human CD40; not shown: His tag
T4 sequence (P25942 21-193): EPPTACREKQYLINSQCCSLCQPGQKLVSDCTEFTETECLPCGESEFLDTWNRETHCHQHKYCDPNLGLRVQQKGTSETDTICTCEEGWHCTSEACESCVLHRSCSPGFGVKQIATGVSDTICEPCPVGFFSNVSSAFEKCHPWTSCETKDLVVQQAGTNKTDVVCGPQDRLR
Procedure: Exemplary anti-PD-L1/CD40 bi-specific antibodies were analyzed by ELISA for their simultaneous binding to recombinant human PD-L1 and human CD40. Briefly, Ly090 (human CD40 ECD protein with His tag) was diluted and coated onto an ELISA plate with a volume of 100 μL/well by incubation at 4° C. overnight. The next day, the plate was blocked by PBST-BSA buffer, then serially diluted samples of anti-PD-L1/CD40 bi-specific antibodies were pipetted into appropriate wells at 50 μL/well, and the plate was incubated for 1 h followed by Washing. Human PD-L1 ECD protein (mouse IgG2a Fc tag) was added into the plate at 50 μL/well. After 1-hour incubation at room temperature, HRP-conjugated anti-Mouse IgG, Fc G2a antibody was added into the plate at 100 μL/well. The plate was incubated for 1 hour at room temperature followed by washing. TMB substrate solution was added at 100 μL/well and the color development was stopped by adding 100 uL/well Stop Solution (2N H₂SO₄). Absorbance at 450 nm and 620 nm was read by Tecan F200 Pro plate reader. GraphPad 7.0, “[Agonist] vs. response—Variable slope (four parameters)” was used to plot the binding data and calculate binding EC50 values.

[5] = target: T5, human PD-1 expressed on CHO cells (human, UniProt Q15116 25-288); test: FACS, CHO cells
T5 construct: whole, on cells; also used for human PD-1 on Jurkat reporter cells; also called Jurkat/NFkB-Luci/PD-1 cells
T5 sequence (Q15116 25-288): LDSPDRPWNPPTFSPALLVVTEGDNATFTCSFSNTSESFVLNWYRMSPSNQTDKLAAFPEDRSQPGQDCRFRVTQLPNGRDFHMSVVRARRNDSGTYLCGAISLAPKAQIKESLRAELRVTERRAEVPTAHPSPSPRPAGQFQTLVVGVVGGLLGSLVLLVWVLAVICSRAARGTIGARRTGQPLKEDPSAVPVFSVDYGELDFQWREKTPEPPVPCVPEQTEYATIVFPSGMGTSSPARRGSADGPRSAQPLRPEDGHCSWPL

T1 sequence (P25942 21-193): as the sequence (P25942 21-193) above

binding result [4]: binds
binding result [2]: binds
B4: Ly342 (bispecific antibody, human IgG1, kappa)
heavy: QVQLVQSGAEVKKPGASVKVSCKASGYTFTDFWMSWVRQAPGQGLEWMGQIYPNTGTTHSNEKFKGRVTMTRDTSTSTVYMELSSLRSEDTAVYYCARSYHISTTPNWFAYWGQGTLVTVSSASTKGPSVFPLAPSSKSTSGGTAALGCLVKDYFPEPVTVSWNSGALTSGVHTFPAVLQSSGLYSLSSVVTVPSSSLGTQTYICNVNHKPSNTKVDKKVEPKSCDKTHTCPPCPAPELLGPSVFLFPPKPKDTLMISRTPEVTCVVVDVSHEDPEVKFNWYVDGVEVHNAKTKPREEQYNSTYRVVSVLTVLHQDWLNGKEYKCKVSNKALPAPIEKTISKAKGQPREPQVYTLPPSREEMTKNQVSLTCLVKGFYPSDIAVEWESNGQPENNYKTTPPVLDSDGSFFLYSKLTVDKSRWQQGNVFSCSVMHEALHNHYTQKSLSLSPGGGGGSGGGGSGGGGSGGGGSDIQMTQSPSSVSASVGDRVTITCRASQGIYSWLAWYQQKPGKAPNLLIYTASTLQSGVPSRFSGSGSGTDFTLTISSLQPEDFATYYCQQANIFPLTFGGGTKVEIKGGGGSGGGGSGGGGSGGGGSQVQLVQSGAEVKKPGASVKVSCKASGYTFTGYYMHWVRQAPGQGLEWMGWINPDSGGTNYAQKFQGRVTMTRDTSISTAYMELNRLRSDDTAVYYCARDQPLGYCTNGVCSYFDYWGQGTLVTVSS
light: DIQMTQSPSSLSASVGDRVTITCKASQNVYKKLEWYQQKPGKVPKVLIYHTNILQTGVPSRFSGSGSGTDYTLTISSLQPEDVATYYCYQWNSGPTFGGGTKVEIKRTVAAPSVFIFPPSDEQLKSGTASVVCLLNNFYPREAKVQWKVDNALQSGNSQESVTEQDSKDSTYSLSSTLTLSKADYEKHKVYACEVTHQGLSSPVTKSFNRGEC
notes: Ly076 HC (IgG1 mutated Fc)-Ly253 scFv VL-VH + Ly076 LC

binding result [4]: binds
binding result [2]: binds
B5: Ly344 (bispecific antibody, human IgG1, kappa)
heavy: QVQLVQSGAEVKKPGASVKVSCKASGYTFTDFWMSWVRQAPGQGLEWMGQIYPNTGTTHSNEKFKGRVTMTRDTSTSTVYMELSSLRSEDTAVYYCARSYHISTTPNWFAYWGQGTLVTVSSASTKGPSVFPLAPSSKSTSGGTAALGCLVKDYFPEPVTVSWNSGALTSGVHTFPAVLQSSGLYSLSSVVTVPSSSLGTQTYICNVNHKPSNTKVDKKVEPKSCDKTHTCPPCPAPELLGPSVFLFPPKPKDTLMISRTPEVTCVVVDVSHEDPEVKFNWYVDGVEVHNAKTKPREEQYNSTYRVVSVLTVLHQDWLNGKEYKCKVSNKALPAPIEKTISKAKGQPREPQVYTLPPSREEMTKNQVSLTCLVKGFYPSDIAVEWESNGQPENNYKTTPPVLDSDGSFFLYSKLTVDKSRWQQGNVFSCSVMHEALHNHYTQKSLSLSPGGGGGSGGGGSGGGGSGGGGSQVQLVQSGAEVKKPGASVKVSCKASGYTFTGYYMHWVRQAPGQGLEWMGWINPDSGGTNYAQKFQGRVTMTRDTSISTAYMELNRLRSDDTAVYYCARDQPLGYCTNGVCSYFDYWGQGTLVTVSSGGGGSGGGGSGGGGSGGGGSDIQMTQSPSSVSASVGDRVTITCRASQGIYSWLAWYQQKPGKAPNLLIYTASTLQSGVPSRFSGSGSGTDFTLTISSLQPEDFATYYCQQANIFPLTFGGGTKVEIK
light: B4 light
notes: Ly076 HC (IgG1 mutated Fc)-Ly253 scFv VH-VL + Ly076 LC

binding result [2]: binds
binding result [5]: binds
B6: Ly819 (bispecific antibody, human IgG1, kappa)
heavy: QVTLKESGPALVKPTQTLTLTCTFSGFSLSTSGTCVSWIRQPPGKALEWLATICWEDSKGYNPSLKSRLTISKDTSKNQAVLTMTNMDPVDTATYYCARREDSGYFWFPYWGQGTLVTVSSASTKGPSVFPLAPSSKSTSGGTAALGCLVKDYFPEPVTVSWNSGALTSGVHTFPAVLQSSGLYSLSSVVTVPSSSLGTQTYICNVNHKPSNTKVDKKVEPKSCDKTHTCPPCPAPELLGPSVFLFPPKPKDTLMISRTPEVTCVVVDVSHEDPEVKFNWYVDGVEVHNAKTKPREEQYNSTYRVVSVLTVLHQDWLNGKEYKCKVSNKALPAPIEKTISKAKGQPREPQVYTLPPSREEMTKNQVSLTCLVKGFYPSDIAVEWESNGQPENNYKTTPPVLDSDGSFFLYSKLTVDKSRWQQGNVFSCSVMHEALHNHYTQKSLSLSPGK
light: NIQMTQSPSSLSASVGDRVTITCKAGQNVNNYLAWYQQKPGKAPKVLIFNANSLQTGVPSRFSGSGSGTDFTLTISSLQPEDFATYYCQQYNSWPTFGGGTKVEIKRTVAAPSVFIFPPSDEQLKSGTASVVCLLNNFYPREAKVQWKVDNALQSGNSQESVTEQDSKDSTYSLSSTLTLSKADYEKHKVYACEVTHQGLSSPVTKSFNRGECGGGGSGGGGSGGGGSGGGGSDIQMTQSPSSLSASVGDRVTITCLASEDISNDLAWYQQKPGKAPKLLIYFVDRLLDGVPSRFSGSGSGTDFTLTISSLQPEDFATYYCQQSYKYPPTFGQGTKLEIKGGGGSGGGGSGGGGSGGGGSEVQLVESGGGLVQPGGSLRLSCAASGFTFTNYGLHWVRQAPGKGLEWVSSISPSGGVTYYRDSVKGRFTISRDNSKNTLYLQMNSLRAEDTAVYYCAKPFLGWGGANWIAHWGQGTLVTVSS
notes: Ly516 HC (IgG1 mutated Fc) + Ly516 LC-TM559 scFv VL-VH

binding result [2]: binds
binding result [5]: binds
B7: Ly820 (bispecific antibody, human IgG1, kappa)
heavy: B6 heavy
light: NIQMTQSPSSLSASVGDRVTITCKAGQNVNNYLAWYQQKPGKAPKVLIFNANSLQTGVPSRFSGSGSGTDFTLTISSLQPEDFATYYCQQYNSWPTFGGGTKVEIKRTVAAPSVFIFPPSDEQLKSGTASVVCLLNNFYPREAKVQWKVDNALQSGNSQESVTEQDSKDSTYSLSSTLTLSKADYEKHKVYACEVTHQGLSSPVTKSFNRGECGGGGSGGGGSGGGGSGGGGSEVQLVESGGGLVQPGGSLRLSCAASGFTFTNYGLHWVRQAPGKGLEWVSSISPSGGVTYYRDSVKGRFTISRDNSKNTLYLQMNSLRAEDTAVYYCAKPFLGWGGANWIAHWGQGTLVTVSSGGGGSGGGGSGGGGSGGGGSDIQMTQSPSSLSASVGDRVTITCLASEDISNDLAWYQQKPGKAPKLLIYFVDRLLDGVPSRFSGSGSGTDFTLTISSLQPEDFATYYCQQSYKYPPTFGQGTKLEIK
notes: Ly516 HC (IgG1 mutated Fc) + Ly516 LC-TM559 scFv VH-VL

The next lines start with the binder.

B1: Ly475 (bispecific antibody, human IgG1, kappa)
heavy: EVQLVESGGDLVKPGGSLKLSCAASGFTFSSYGMSWVRQTPDKRLEWVAAISTGGSYTYYPDSVKGRFTISRDTATNTLYLQMSTLKSEDTAMYYCTRRGATGSWFAYWGQGTLVTVSAASTKGPSVFPLAPSSKSTSGGTAALGCLVKDYFPEPVTVSWNSGALTSGVHTFPAVLQSSGLYSLSSVVTVPSSSLGTQTYICNVNHKPSNTKVDKKVEPKSCDKTHTCPPCPAPELLGPSVFLFPPKPKDTLMISRTPEVTCVVVDVSHEDPEVKFNWYVDGVEVHNAKTKPREEQYNSTYRVVSVLTVLHQDWLNGKEYKCKVSNKALPAPIEKTISKAKGQPREPQVYTLPPSREEMTKNQVSLTCLVKGFYPSDIAVEWESNGQPENNYKTTPPVLDSDGSFFLYSKLTVDKSRWQQGNVFSCSVMHEALHNHYTQKSLSLSPGGGGGSGGGGSGGGGSGGGGSQVQLVESGGGLVQPGGSLKLSCATSGFNFNDYFMNWVRQASGKGLEWVGQIRNKNYNYATYYTESLEGRVTISRDDSKNTAYLQMNSLKTEDTAVYYCTSYYYDGFADYFDYWGQGTTVTVSSGGGGSGGGGSGGGGSGGGGSDIQMTQSPSSLSASVGDRVTITCKASQNIYIYLNWYQQKPGKAPKLLIYNTNNLQTGVPSRFSGSGSGTDFTLTISSLQPEDFATYYCLQHSSRRTFGGGTKVEIK
light: DILMTQSPSSMSVSLGDTVSITCHASQGINNNIGWLQRKPGKSFKGLIYHGTNLEDGVPSRFSGSGSGADYSLTISSLESEDFADYYCVQYVQFPRTFGGGTKLEIKRTVAAPSVFIFPPSDEQLKSGTASVVCLLNNFYPREAKVQWKVDNALQSGNSQESVTEQDSKDSTYSLSSTLTLSKADYEKHKVYACEVTHQGLSSPVTKSFNRGEC
notes: Ly361 HC (IgG1 mutated Fc)-TM740 scFv VH-VL + Ly361 LC
binding result [1]: binds
binding result [2]: binds
binding result [3]: binds

B2: Ly343 (bispecific antibody, human IgG1, kappa)
heavy: QVQLVQSGAEVKKPGASVKVSCKASGYTFTDFWMSWVRQAPGQGLEWMGQIYPNTGTTHSNEKFKGRVTMTRDTSTSTVYMELSSLRSEDTAVYYCARSYHISTTPNWFAYWGQGTLVTVSSASTKGPSVFPLAPSSKSTSGGTAALGCLVKDYFPEPVTVSWNSGALTSGVHTFPAVLQSSGLYSLSSVVTVPSSSLGTQTYICNVNHKPSNTKVDKKVEPKSCDKTHTCPPCPAPELLGPSVFLFPPKPKDTLMISRTPEVTCVVVDVSHEDPEVKFNWYVDGVEVHNAKTKPREEQYNSTYRVVSVLTVLHQDWLNGKEYKCKVSNKALPAPIEKTISKAKGQPREPQVYTLPPSREEMTKNQVSLTCLVKGFYPSDIAVEWESNGQPENNYKTTPPVLDSDGSFFLYSKLTVDKSRWQQGNVFSCSVMHEALHNHYTQKSLSLSPG
light: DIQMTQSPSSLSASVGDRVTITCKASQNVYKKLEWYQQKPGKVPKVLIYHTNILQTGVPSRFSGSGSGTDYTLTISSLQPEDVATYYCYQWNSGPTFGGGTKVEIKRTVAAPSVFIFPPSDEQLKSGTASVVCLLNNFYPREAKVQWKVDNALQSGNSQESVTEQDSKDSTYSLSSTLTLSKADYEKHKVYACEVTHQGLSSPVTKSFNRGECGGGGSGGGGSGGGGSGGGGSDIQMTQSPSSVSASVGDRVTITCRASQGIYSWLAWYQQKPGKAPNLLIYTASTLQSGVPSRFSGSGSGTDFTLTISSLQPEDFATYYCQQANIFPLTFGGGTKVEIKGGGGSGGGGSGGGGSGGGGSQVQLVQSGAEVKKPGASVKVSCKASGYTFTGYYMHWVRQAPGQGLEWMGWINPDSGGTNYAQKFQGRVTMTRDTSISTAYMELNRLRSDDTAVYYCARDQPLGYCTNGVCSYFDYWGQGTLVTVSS
notes: Ly076 HC (IgG1 mutated Fc) + Ly076 LC-Ly253 scFv VL-VH
binding result [4]: binds
binding result [2]: binds

B3: Ly345 (bispecific antibody, human IgG1, kappa)
heavy: B2 heavy
light: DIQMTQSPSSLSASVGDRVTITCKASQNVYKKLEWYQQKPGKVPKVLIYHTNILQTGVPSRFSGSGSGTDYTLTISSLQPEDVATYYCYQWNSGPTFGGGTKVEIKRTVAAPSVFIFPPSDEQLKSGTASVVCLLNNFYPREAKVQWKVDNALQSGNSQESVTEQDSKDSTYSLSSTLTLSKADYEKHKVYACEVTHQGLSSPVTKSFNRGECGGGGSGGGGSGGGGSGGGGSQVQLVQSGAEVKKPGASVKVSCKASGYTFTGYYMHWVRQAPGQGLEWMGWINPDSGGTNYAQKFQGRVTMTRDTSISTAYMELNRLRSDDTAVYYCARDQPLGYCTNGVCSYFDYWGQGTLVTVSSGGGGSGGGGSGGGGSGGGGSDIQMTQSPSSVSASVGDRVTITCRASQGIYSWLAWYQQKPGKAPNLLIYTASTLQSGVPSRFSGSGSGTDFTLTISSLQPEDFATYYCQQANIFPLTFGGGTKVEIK
notes: Ly076 HC (IgG1 mutated Fc) + Ly076 LC-Ly253 scFv VH-VL
binding result [4]: binds
binding result [2]: binds
